This data set is described as follows: expression yield of multisite mutants. The note with it: glycan lost; control: wild type.

B1: DORN1 extracellular domain (atDORN1-ECD; LecRK-I.9): N124N225D (protein)
parent chain: MARWLLQILIISSLHLSSVSSQQETSFVYESFLDRQNLYLDKSAIVLPSGLLQLTNASEHQMGHAFHKKPIEFSSSGPLSFSTHFVCALVPKPGFEGGHGIVFVLSPSMDFTHAESTRYLGIFNASTNGSSSYHVLAVELDTIWNPDFKDIDHNHVGIDVNSPISVAIASASYYSDMKGSNESINLLSGNPIQVWVDYEGTLLNVSVAPLEVQKPTRPLLSHPINLTELFPNRSSLFAGFSAATGTAISDQYILWWSFSIDRGSLQRLDISKLPEVPHPRAPHKKVSTLIILLPVCLAILVLAVLAGLYFRRRRKYSEVSETWEKEFDAHRFSYRSLFKATKGFSKDEFLGKGGFGEVYRGNLPQGREIAVKRVSHNGDEGVKQFVAEVVSMRCLKHRNLVPLFGYCRRKRELLLVSEYMPNGSLDEHLFDDQKPVLSWSQRLVVVKGIASALWYLHTGADQVVLHRDVKASNIMLDAEFHGRLGDFGMARFHEHGGNAATTAAVGTVGYMAPELITMGASTGTDVYAFGVFMLEVTCGRRPVEPQLQVEKRHMIKWVCECWKKDSLLDATDPRLGGKFVAEEVEMVMKLGLLCSNIVPESRPTMEQVVLYLNKNLPLPDFSPYTLGIGTFAPVLVDASSLVVSSASWSLSGPSMSSSSPNHSPYAWQSTDQPWGQTIDTKNSLHIVAEPEKPSPAVKMVTLPAEDPQSNHSSISSQRVQPVKREKRRLHQILVAFPWINKQYFKLGLPKHIVHVSLFFFLQLARL
With B1, the “expression_or_secretion, percent_of_wt” value is on record as “decreases”.

B2: DORN1 extracellular domain (atDORN1-ECD; LecRK-I.9): N124N204N225D (protein)
parent chain: MARWLLQILIISSLHLSSVSSQQETSFVYESFLDRQNLYLDKSAIVLPSGLLQLTNASEHQMGHAFHKKPIEFSSSGPLSFSTHFVCALVPKPGFEGGHGIVFVLSPSMDFTHAESTRYLGIFNASTNGSSSYHVLAVELDTIWNPDFKDIDHNHVGIDVNSPISVAIASASYYSDMKGSNESINLLSGNPIQVWVDYEGTLLNVSVAPLEVQKPTRPLLSHPINLTELFPNRSSLFAGFSAATGTAISDQYILWWSFSIDRGSLQRLDISKLPEVPHPRAPHKKVSTLIILLPVCLAILVLAVLAGLYFRRRRKYSEVSETWEKEFDAHRFSYRSLFKATKGFSKDEFLGKGGFGEVYRGNLPQGREIAVKRVSHNGDEGVKQFVAEVVSMRCLKHRNLVPLFGYCRRKRELLLVSEYMPNGSLDEHLFDDQKPVLSWSQRLVVVKGIASALWYLHTGADQVVLHRDVKASNIMLDAEFHGRLGDFGMARFHEHGGNAATTAAVGTVGYMAPELITMGASTGTDVYAFGVFMLEVTCGRRPVEPQLQVEKRHMIKWVCECWKKDSLLDATDPRLGGKFVAEEVEMVMKLGLLCSNIVPESRPTMEQVVLYLNKNLPLPDFSPYTLGIGTFAPVLVDASSLVVSSASWSLSGPSMSSSSPNHSPYAWQSTDQPWGQTIDTKNSLHIVAEPEKPSPAVKMVTLPAEDPQSNHSSISSQRVQPVKREKRRLHQILVAFPWINKQYFKLGLPKHIVHVSLFFFLQLARL
B2: the “expression_or_secretion, percent_of_wt” value was “decreases”.

B3: DORN1 extracellular domain (atDORN1-ECD; LecRK-I.9): N124N128N225D (protein)
parent chain: MARWLLQILIISSLHLSSVSSQQETSFVYESFLDRQNLYLDKSAIVLPSGLLQLTNASEHQMGHAFHKKPIEFSSSGPLSFSTHFVCALVPKPGFEGGHGIVFVLSPSMDFTHAESTRYLGIFNASTNGSSSYHVLAVELDTIWNPDFKDIDHNHVGIDVNSPISVAIASASYYSDMKGSNESINLLSGNPIQVWVDYEGTLLNVSVAPLEVQKPTRPLLSHPINLTELFPNRSSLFAGFSAATGTAISDQYILWWSFSIDRGSLQRLDISKLPEVPHPRAPHKKVSTLIILLPVCLAILVLAVLAGLYFRRRRKYSEVSETWEKEFDAHRFSYRSLFKATKGFSKDEFLGKGGFGEVYRGNLPQGREIAVKRVSHNGDEGVKQFVAEVVSMRCLKHRNLVPLFGYCRRKRELLLVSEYMPNGSLDEHLFDDQKPVLSWSQRLVVVKGIASALWYLHTGADQVVLHRDVKASNIMLDAEFHGRLGDFGMARFHEHGGNAATTAAVGTVGYMAPELITMGASTGTDVYAFGVFMLEVTCGRRPVEPQLQVEKRHMIKWVCECWKKDSLLDATDPRLGGKFVAEEVEMVMKLGLLCSNIVPESRPTMEQVVLYLNKNLPLPDFSPYTLGIGTFAPVLVDASSLVVSSASWSLSGPSMSSSSPNHSPYAWQSTDQPWGQTIDTKNSLHIVAEPEKPSPAVKMVTLPAEDPQSNHSSISSQRVQPVKREKRRLHQILVAFPWINKQYFKLGLPKHIVHVSLFFFLQLARL
On to B3, for which the “expression_or_secretion, percent_of_wt” value was “decreases”.

B4: DORN1 extracellular domain (atDORN1-ECD; LecRK-I.9): N124N128N204D (protein)
parent chain: MARWLLQILIISSLHLSSVSSQQETSFVYESFLDRQNLYLDKSAIVLPSGLLQLTNASEHQMGHAFHKKPIEFSSSGPLSFSTHFVCALVPKPGFEGGHGIVFVLSPSMDFTHAESTRYLGIFNASTNGSSSYHVLAVELDTIWNPDFKDIDHNHVGIDVNSPISVAIASASYYSDMKGSNESINLLSGNPIQVWVDYEGTLLNVSVAPLEVQKPTRPLLSHPINLTELFPNRSSLFAGFSAATGTAISDQYILWWSFSIDRGSLQRLDISKLPEVPHPRAPHKKVSTLIILLPVCLAILVLAVLAGLYFRRRRKYSEVSETWEKEFDAHRFSYRSLFKATKGFSKDEFLGKGGFGEVYRGNLPQGREIAVKRVSHNGDEGVKQFVAEVVSMRCLKHRNLVPLFGYCRRKRELLLVSEYMPNGSLDEHLFDDQKPVLSWSQRLVVVKGIASALWYLHTGADQVVLHRDVKASNIMLDAEFHGRLGDFGMARFHEHGGNAATTAAVGTVGYMAPELITMGASTGTDVYAFGVFMLEVTCGRRPVEPQLQVEKRHMIKWVCECWKKDSLLDATDPRLGGKFVAEEVEMVMKLGLLCSNIVPESRPTMEQVVLYLNKNLPLPDFSPYTLGIGTFAPVLVDASSLVVSSASWSLSGPSMSSSSPNHSPYAWQSTDQPWGQTIDTKNSLHIVAEPEKPSPAVKMVTLPAEDPQSNHSSISSQRVQPVKREKRRLHQILVAFPWINKQYFKLGLPKHIVHVSLFFFLQLARL
Turning to B4, the “expression_or_secretion, percent_of_wt” value is listed as “decreases”.

B5: DORN1 extracellular domain (atDORN1-ECD; LecRK-I.9): N128N204N225D (protein)
parent chain: MARWLLQILIISSLHLSSVSSQQETSFVYESFLDRQNLYLDKSAIVLPSGLLQLTNASEHQMGHAFHKKPIEFSSSGPLSFSTHFVCALVPKPGFEGGHGIVFVLSPSMDFTHAESTRYLGIFNASTNGSSSYHVLAVELDTIWNPDFKDIDHNHVGIDVNSPISVAIASASYYSDMKGSNESINLLSGNPIQVWVDYEGTLLNVSVAPLEVQKPTRPLLSHPINLTELFPNRSSLFAGFSAATGTAISDQYILWWSFSIDRGSLQRLDISKLPEVPHPRAPHKKVSTLIILLPVCLAILVLAVLAGLYFRRRRKYSEVSETWEKEFDAHRFSYRSLFKATKGFSKDEFLGKGGFGEVYRGNLPQGREIAVKRVSHNGDEGVKQFVAEVVSMRCLKHRNLVPLFGYCRRKRELLLVSEYMPNGSLDEHLFDDQKPVLSWSQRLVVVKGIASALWYLHTGADQVVLHRDVKASNIMLDAEFHGRLGDFGMARFHEHGGNAATTAAVGTVGYMAPELITMGASTGTDVYAFGVFMLEVTCGRRPVEPQLQVEKRHMIKWVCECWKKDSLLDATDPRLGGKFVAEEVEMVMKLGLLCSNIVPESRPTMEQVVLYLNKNLPLPDFSPYTLGIGTFAPVLVDASSLVVSSASWSLSGPSMSSSSPNHSPYAWQSTDQPWGQTIDTKNSLHIVAEPEKPSPAVKMVTLPAEDPQSNHSSISSQRVQPVKREKRRLHQILVAFPWINKQYFKLGLPKHIVHVSLFFFLQLARL
Take B5: the “expression_or_secretion, percent_of_wt” value is reported as “decreases”.

B6: DORN1 extracellular domain (atDORN1-ECD; LecRK-I.9): N204N225D (protein)
parent chain: MARWLLQILIISSLHLSSVSSQQETSFVYESFLDRQNLYLDKSAIVLPSGLLQLTNASEHQMGHAFHKKPIEFSSSGPLSFSTHFVCALVPKPGFEGGHGIVFVLSPSMDFTHAESTRYLGIFNASTNGSSSYHVLAVELDTIWNPDFKDIDHNHVGIDVNSPISVAIASASYYSDMKGSNESINLLSGNPIQVWVDYEGTLLNVSVAPLEVQKPTRPLLSHPINLTELFPNRSSLFAGFSAATGTAISDQYILWWSFSIDRGSLQRLDISKLPEVPHPRAPHKKVSTLIILLPVCLAILVLAVLAGLYFRRRRKYSEVSETWEKEFDAHRFSYRSLFKATKGFSKDEFLGKGGFGEVYRGNLPQGREIAVKRVSHNGDEGVKQFVAEVVSMRCLKHRNLVPLFGYCRRKRELLLVSEYMPNGSLDEHLFDDQKPVLSWSQRLVVVKGIASALWYLHTGADQVVLHRDVKASNIMLDAEFHGRLGDFGMARFHEHGGNAATTAAVGTVGYMAPELITMGASTGTDVYAFGVFMLEVTCGRRPVEPQLQVEKRHMIKWVCECWKKDSLLDATDPRLGGKFVAEEVEMVMKLGLLCSNIVPESRPTMEQVVLYLNKNLPLPDFSPYTLGIGTFAPVLVDASSLVVSSASWSLSGPSMSSSSPNHSPYAWQSTDQPWGQTIDTKNSLHIVAEPEKPSPAVKMVTLPAEDPQSNHSSISSQRVQPVKREKRRLHQILVAFPWINKQYFKLGLPKHIVHVSLFFFLQLARL
On to B6, for which the “expression_or_secretion, percent_of_wt” value is “decreases”.

B7: DORN1 extracellular domain (atDORN1-ECD; LecRK-I.9): N128N204D (protein)
parent chain: MARWLLQILIISSLHLSSVSSQQETSFVYESFLDRQNLYLDKSAIVLPSGLLQLTNASEHQMGHAFHKKPIEFSSSGPLSFSTHFVCALVPKPGFEGGHGIVFVLSPSMDFTHAESTRYLGIFNASTNGSSSYHVLAVELDTIWNPDFKDIDHNHVGIDVNSPISVAIASASYYSDMKGSNESINLLSGNPIQVWVDYEGTLLNVSVAPLEVQKPTRPLLSHPINLTELFPNRSSLFAGFSAATGTAISDQYILWWSFSIDRGSLQRLDISKLPEVPHPRAPHKKVSTLIILLPVCLAILVLAVLAGLYFRRRRKYSEVSETWEKEFDAHRFSYRSLFKATKGFSKDEFLGKGGFGEVYRGNLPQGREIAVKRVSHNGDEGVKQFVAEVVSMRCLKHRNLVPLFGYCRRKRELLLVSEYMPNGSLDEHLFDDQKPVLSWSQRLVVVKGIASALWYLHTGADQVVLHRDVKASNIMLDAEFHGRLGDFGMARFHEHGGNAATTAAVGTVGYMAPELITMGASTGTDVYAFGVFMLEVTCGRRPVEPQLQVEKRHMIKWVCECWKKDSLLDATDPRLGGKFVAEEVEMVMKLGLLCSNIVPESRPTMEQVVLYLNKNLPLPDFSPYTLGIGTFAPVLVDASSLVVSSASWSLSGPSMSSSSPNHSPYAWQSTDQPWGQTIDTKNSLHIVAEPEKPSPAVKMVTLPAEDPQSNHSSISSQRVQPVKREKRRLHQILVAFPWINKQYFKLGLPKHIVHVSLFFFLQLARL
Consider B7, for which the “expression_or_secretion, percent_of_wt” value is “decreases”.

Source of the values: article PMC5053164.
